Target: the molecule itself
Assay: crystal structure; PaFabB C161A lacking the His-tag (9-23 mg/mL) in 20 mM Tris-HCl, 150 mM NaCl, 1 mM DTT, pH 7.4; sitting drop, 20°C; 0.2 M sodium iodide, 0.1 M Bis-Tris propane pH 7.5, PEG 3350, ethylene glycol; space group C 2 2 21, 2 protein molecules in the asymmetric unit; 1.3 Å

B1: Pseudomonas aeruginosa FabB C161A (3-oxoacyl-[acyl-carrier-protein] synthase 1), without His-tag (enzyme)
chain: MRRVVITGLGIVSCLGNDKDTVSANLRAGRPGIRFNPSYAEMGLRSHVSGSVDLNLEELIDRKVFRFMGDAAAYAYLAMEQAIKDSGLTPEQISNPRTGLIAGSGGASTLNQMEAIDTLREKGVKRIGPYRVTRTMGSTVSACLATPFQIKGVNYSISSAAATSAHCIGQAMEQIQLGKQDVVFAGGGEEEHWSQSCLFDAMGALSTQYNETPEKASRAYDAKRDGFVIAGGGGMVVVEELEHALKRGAKIYAEIVGYGATSDGYDMVAPSGEGAIRCMQQALATVDAPIDYLNTHGTSTPVGDVAEIRGVREVFGDKAPAISSTKSLSGHSLGAAGVHEAIYCLLMMEGGFIAGSANIDELDPEVADLPILRETRENAKLDTVMSNSFGFGGTNATLVLKRWQG
notes: FabB (3-oxoacyl-[acyl-carrier-protein] synthase 1) of P. aeruginosa PA14, ORF PA14_43690, with the point mutation C161A; gene synthesised and cloned NdeI/BamHI into pET-28a(+)-TEV; 808 protein residues modelled in the dimer; also called PaFabB C161A; cleaved PaFabB C161A; not shown: His6, N-terminal, cleaved
stoichiometry N: 2

From article PMC8804906, “Crystal structure of Pseudomonas aeruginosa FabB C161A, a template for structure-based design for new antibiotics” (F1000Research, 2021)
